From the nanobody polyreactivity screen of Harvey et al. (2022)

Experiment: yeast display, Sf9 membrane polyspecificity reagent, FACS + sequencing; frameworks hold sequencing errors
In short: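 A nanobody's polyreactivity label depends on the gate it was sorted from. Yeast display cells were stained with 10% biotinylated, detergent-solubilized Sf9 membrane reagent for 1 hour at 4 °C, enriched on streptavidin microbeads and sorted by FACS. The low and high (top ~1%) gates were set on anti-HA fluorescence for expression and streptavidin fluorescence for reagent binding.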

Row | Sequence | polyreactivity (PSR sort gate)
1 | QVQLVESGGGLVQAGGSLRLSCAASGRIFNGYAMGWYRQAPGKERELVAAINSSGGSTYYADSVKGRFTISRDNAKNTVFLQMNSLKPEDTAVYYCARVSYHYRTYDYWGQGTQVTVSS | high polyreactivity
2 | QVQLVESGGGLVQAGGSLRLSCAASGRIFNGYAMGWYRQAPGKERELVAAISVSGGSTYYADSVKGRFTISRDNAKNTVYLQMNSLKPEDTAVYYCAARTSSYSFPYAYNYWGQGTQVTVSS | high polyreactivity
3 | QVQLVESGGGLVQAGGSLRLSCAASGRIFNGYAMGWYRQAPGKERELVARISKRGGRTYYADSVKGRFTISRDNAKNTVYLQMNSLKPEDTAVYYCNAVPRVTRPSAVEEYDYWGQGTQVTVSS | high polyreactivity
4 | QVQLVESGGGLVQAGGSLRLSCAASGRIFNKNAMGWYRQAPGKERELVAAITYSGGSTYYADSVKGRFTISRDNAKNTVYLQMNSLKPEDTAVYYCARDLYYVYSFAPYRYEYWGQGTQVTVSS | low polyreactivity
5 | QVQLVESGGGLVQAGGSLRLSCAASGRIFNLYAMGWYRPAPGKERELVAAISWSGGSTYYADSVKGRFTITRDNAKNTVYLQMNSLKPEDTAVYYCKVVSTYKHTYDFDYWGQGTQVTLSS | high polyreactivity
6 | QVQLVESGGGLVQAGGSLRLSCAASGRIFNMYAMGWYRQAPGKERELVAAISVSGTRTYYADSVKGRFTISRDNAKNTVYLQMNSLKPEDTAVYYCAADSYGGVWSEHMYYWGQGTQVTVSS | low polyreactivity
7 | QVQLVESGGGLVQAGGSLRLSCAASGRIFNPYAMGWYRQAPGKERELVAAISWSGSTTYYADSVKGRFTISRDNAKNTVYLQMNSLKPEDTAVYYCAAEVVFFGWNYDYWGQGTQVTVSS | high polyreactivity
8 | QVQLVESGGGLVQAGGSLRLSCAASGRIFNQSGMGWYRQAPGKERELVAAIRSGDSTNYADSVKGRFTISRDNAKNTVYLQMNSLKPEDTAVYYCAKDSDYPDYVSTKGDYDYWGQGTQVTVSS | low polyreactivity
9 | QVQLVESGGGLVQAGGSLRLSCAASGRIFNQYGMGWYRQAPGKERELVAAIRSGDSTNYADSVKGRFTISRDNAKNTVYLPMNSLKPEDTAVYYCASDRPGDYAGYDYWGQGTQVTVSS | low polyreactivity
10 | QVQLVESGGGLVQAGGSLRLSCAASGRIFNQYGMGWYRQAPGKERELVAAIRSGDSTNYADSVKGRFTISRDNAKNTVYLQMNSLKPEDTAVYYCARDFSPGSSDPKASISFDHWGQGTQVTVSS | low polyreactivity
11 | QVQLVESGGGLVQAGGSLRLSCAASGRIFNQYGMGWYRQAPGKERELVAAIRSGDSTNYADSVKGRFTISRDNAKNTVYLQRNSLKPEDTAVYYSARDRPGDYAGYDYWGQGTQVTVSS | low polyreactivity
12 | QVQLVESGGGLVQAGGSLRLSCAASGRIFNQYGMGWYSQARGKERELVAAIRSGDSTNYADSVKGRFTISRDNAKNTVYLQMNSLKPEDTAVDYCARDRPGDYAGYDYWGQGTQVTVSS | low polyreactivity
13 | QVQLVESGGGLVQAGGSLRLSCAASGRIFNRNAMGWYRQPPGKERELGAAISRSGSRTYYADSVKWRFTISRDNAKNTVYLQMNSLKPEDTAVYYCAVSGYSPYLYRYGYWGQGTQETVSS | high polyreactivity
14 | QVQLVESGGGLVQAGGSLRLSCAASGRIFNRYAMGWYRQAPGKERELVAAINSSGGSTYYADSVKGRFTISRDNAKNTVYLQMNSLKPEDTAVYYCARVSYHYRTYDYWGQGTQVTVSS | high polyreactivity
15 | QVQLVESGGGLVQAGGSLRLSCAASGRIFNRYTMGWYRPAPGKEREFVAAISSRGGSTYYADSVKGRFTISRDNAKNTVDLQMYSLIPEDTAVYYCNKDYYWPLYAPYDSWGQGTRVTVSS | high polyreactivity
16 | QVQLVESGGGLVQAGGSLRLSCAASGRIFNRYVMGWYRQAPGKERELVAAISVRGASTYYADSVKGRFTISRDNAKNTVYLQMNSLKPEDTAVYYCATAGYRLLDYWGEGTQVTVSS | high polyreactivity

Row | Sequence | polyreactivity (PSR sort gate)
17 | QVQLVESGGGLVQAGGSLRLSCAASGRIFNSNAMGWYRQAPGKERELAAAISKRGGSTFYADSVKGRFTISRDNAKNTVYLQMNSLKPEDTAVYYCNARRLSTGFERYDYWGQGTQVTVSS | high polyreactivity
18 | QVQLVESGGGLVQAGGSLRLSCAASGRIFNSYAMGWYRQAPGKERELVAAISWSGSSTYYADSVKGRFTISRDNAKNTVYLQMNSLKPEDTAVYYCAAGTRYFDYWGQGTQVTVSS | high polyreactivity
19 | QVQLVESGGGLVQAGGSLRLSCAASGRIFNSYAMGWYRQAPGKERELVAAITRGGSTNYADSVKGRFTISRDNAKNTVYLHMNSLKPEDTAVYYCAAVTLFHYRYDYWGQGTQVTVSS | low polyreactivity
20 | QVQLVESGGGLVQAGGSLRLSCAASGRIFNTYAMGWYRQAPGKERELVAAITSSGGSTYYADSVKGRFTISRDNEKNTVYLQLNSLKPEDTAVYYCAKPWYVRGGSSKYVYWGQGTQVTVSS | high polyreactivity
21 | QVQLVESGGGLVQAGGSLRLSCAASGRIFNTYAMGWYRQAPGKERELVAVISSRGGSTYYADSVKGRFTISRDNAKNTVYLQMNSLKPEDTAVYYCAARGRGQPFVRYDYWGQGTQVTVSS | high polyreactivity
22 | QVQLVESGGGLVQAGGSLRLSCAASGRIFNWYAMGWYRQAPGKERELVARISSGDITSYADSVKGRFTISRDNAKNTVYLQMNRLKPEDTAVYYCDARQWFLYDYWGQGTQVTVSS | low polyreactivity
23 | QVQLVESGGGLVQAGGSLRLSCAASGRIFNYYDMGWYRQPPGKERELVAAISWRGTSTRYADSVKGRFTISRDNAKNTVYLQMNSLKPEDTAVYYCADDDYARRFSFKYDYWGQGTQVTVSS | high polyreactivity
24 | QVQLVESGGGLVQAGGSLRLSCAASGRIFNYYTMGWYRQAPGKEREFVAAISRSGGSTFYADSVKGRFTISRDNAKNTVYLQMNSLKPEDTAVYYCAARSYSRPDGGYVQLDYWGQGTQVTVSS | high polyreactivity
25 | QVQLVESGGGLVQAGGSLRLSCAASGRIFPANAMGWYRQAPGKERELVAAIDYDGGSTYYADSVKGRFTISRDNAKNTVYLQMNSLKPEDTAVYYCAADFYDYEGSYYDYYWGQGTQVTVSS | high polyreactivity
26 | QVQLVESGGGLVQAGGSLRLSCAASGRIFPAYAMGWYRQAPGKERELVASIRRGGITYADSVKGRFTISRDNAKNTVYLLMNSLKPEDTAVYYCNAYVNRATAGRYYSWGQGTQVTVSS | low polyreactivity
27 | QVQLVESGGGLVQAGGSLRLSCAASGRIFPAYAMGWYRQAPWKERELVASIRRGGITYADSVKGRFTISRDNAKNTVYLQMNSLKPEDSAVYYCNADYRGWGYHMYYWGQGTQVTVSS | low polyreactivity
28 | QVQLVESGGGLVQAGGSLRLSCAASGRIFPAYTMGWYRQAPGKERELVAAITWSGGSTYYADSVKGRFTISRDNAKNTVYLQMNSLKPEDTAVYYCAADKLYWYYGTEYGYWGQGTQVTVSS | low polyreactivity
29 | QVQLVESGGGLVQAGGSLRLSCAASGRIFPAYVMGWYRQAPGKERELVATIDNGGGTYYADSVKGRFTISRDNAKNTVYLQMNSLKPEDPAVYYCARDRHVRWGLKMDYWGQGTQVTVSS | low polyreactivity
30 | QVQLVESGGGLVQAGGSLRLSCAASGRIFPDYDMGWYRQAPGKERELVAAITQRGGSTYADSVKGRFTISRDNAKNTVYLQMNSLKPEDTSVYYCAREYYEGYEYWGQGTQVTVSS | low polyreactivity
31 | QVQLVESGGGLVQAGGSLRLSCAASGRIFPFYAMGWYRQAPGKERELVAAISSSGGSTYYADSVKGRFTISRDHAKNTVYFQMNSLKPEDTAVYYCAATRNSDGMGYWGQGTQVTVSS | low polyreactivity
32 | QVQLVESGGGLVQAGGSLRLSCAASGRIFPFYVMGWYRQAPGKERELVATINWSGGSTYYADSVKGRFTISRDNAKNTVYLQMNSLKPEDNAVYYCNAAPSDDYDYWGQGTQVTVSS | low polyreactivity
